Reference: patent publication US20230038638A1, “COMPLEMENT FACTOR I-RELATED COMPOSITIONS AND METHODS” (published 2023)
Residue numbers refer to the chain shown, from its start.

Key:
[1] = biological target: soluble human C3b (human) (UniProt P01024)
human C4b (human) [2] = biological target: T1, human C4b (human) (UniProt P0C0L5)
T1 sequence: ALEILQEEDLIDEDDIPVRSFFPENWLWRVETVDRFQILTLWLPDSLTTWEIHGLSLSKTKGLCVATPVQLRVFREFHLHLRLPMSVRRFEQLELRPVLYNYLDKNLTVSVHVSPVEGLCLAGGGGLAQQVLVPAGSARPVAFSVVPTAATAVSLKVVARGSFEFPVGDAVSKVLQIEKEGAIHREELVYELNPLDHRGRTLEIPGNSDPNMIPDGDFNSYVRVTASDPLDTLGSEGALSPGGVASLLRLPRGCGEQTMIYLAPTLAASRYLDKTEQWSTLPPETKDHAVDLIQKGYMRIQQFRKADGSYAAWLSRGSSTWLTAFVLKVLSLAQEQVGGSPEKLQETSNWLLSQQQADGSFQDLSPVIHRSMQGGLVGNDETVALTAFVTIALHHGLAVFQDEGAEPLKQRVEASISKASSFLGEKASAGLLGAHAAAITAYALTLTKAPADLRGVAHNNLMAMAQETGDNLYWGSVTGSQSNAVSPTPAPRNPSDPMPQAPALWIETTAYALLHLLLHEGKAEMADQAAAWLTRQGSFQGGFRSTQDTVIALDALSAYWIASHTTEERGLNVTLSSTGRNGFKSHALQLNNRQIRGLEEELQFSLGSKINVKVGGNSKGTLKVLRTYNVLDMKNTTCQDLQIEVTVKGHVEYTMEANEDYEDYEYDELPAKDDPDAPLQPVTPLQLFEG

human C4b (human) [3] = biological target: T2, human C4b (human) (UniProt P0C0L4)
T2 sequence: T1 sequence with T151A, G317D, L364P, S365C, I368L, H369D, S420N, A451V, R454L, A530S

| Substance | iC3b Screen Ref Fold (fold vs CFI-HSA wild type) [1] | C4b Screen Ref Fold (fold vs CFI-HSA wild type) (human C4b (human) [2]) | C4c EC50 (nM) (human C4b (human) [3]) | iC3b Screen Ref Fold (fold of CFI-HSA wild type) [1] | C4b Screen Ref Fold (fold of CFI-HSA wild type) (human C4b (human) [2]) | C4c EC50 (human C4b (human) [3]) |
| --- | --- | --- | --- | --- | --- | --- |
| CFI-HSA variant R321A (enzyme) | 0.55 | 0.22 | 897 nM | – | – | – |
| CFI-HSA variant S552G; P558S (enzyme) | – | – | – | 2.1 | 1.96 | 375 nM |
| CFI-HSA variant S552G; Y553H (enzyme) | – | – | – | 0.26 | 2.53 | 74.5 nM |
| CFI-HSA variant S552G; Y553H; F559L (enzyme) | – | – | – | 0.23 | 2.42 | 224 nM |
| CFI-HSA variant S552G; Y553H; F559L; V565I (enzyme) | – | – | – | 0.27 | 3.1 | 83.6 nM |
| CFI-HSA variant S552G; Y553H; P558S (enzyme) | – | – | – | 0.44 | 2.04 | 139 nM |
| CFI-HSA variant S552G; Y553H; V565I (enzyme) | – | – | – | 0.37 | 2.57 | 207 nM |
| CFI-HSA variant S552G; Y553H; V565I; P558S (enzyme) | – | – | – | 0.66 | 3.5 | 108 nM |
| CFI-HSA variant Y20F; E38A; S250A; D425A; Y408L; N531G; E457G; E461Q; R462K; F464Y (enzyme) | 0.77 | 6.31 | 106 nM | – | – | – |
| CFI-HSA variant Y408F; N531G (enzyme) | 1.24 | 5.78 | 75.7 nM | – | – | – |
| CFI-HSA variant Y408L; D425R; E416A (enzyme) | – | – | 221 nM | 2.26 | 0.43 | – |
| CFI-HSA variant Y408L; E457G; D425K (enzyme) | – | – | – | 1.21 | 5.47 | 102 nM |
| CFI-HSA variant Y408L; E457G; D425R; E416A (enzyme) | – | – | 181 nM | 3.02 | 2.03 | – |
| CFI-HSA variant Y408L; E457G; E416A (enzyme) | – | – | 170 nM | 2.51 | 2.11 | – |
| CFI-HSA variant Y408L; E457G; E461Q; R462K (enzyme) | 0.89 | 3.98 | 90.2 nM | – | – | – |
| CFI-HSA variant Y408L; E457G; E461Q; R462K; F464Y (enzyme) | 0.86 | 5.78 | 163 nM | – | – | – |
| CFI-HSA variant Y408L; E457G; K534Q (enzyme) | – | – | – | 0.97 | 5.24 | 83.8 nM |
| CFI-HSA variant Y408L; E457G; N422K (enzyme) | – | – | – | 1.87 | 3.1 | 43.6 nM |

| Substance | iC3b Screen Ref Fold (fold vs CFI-HSA wild type) [1] | C4b Screen Ref Fold (fold vs CFI-HSA wild type) (human C4b (human) [2]) | C4c EC50 (nM) (human C4b (human) [3]) | iC3b Screen Ref Fold (fold of CFI-HSA wild type) [1] | C4b Screen Ref Fold (fold of CFI-HSA wild type) (human C4b (human) [2]) | C4c EC50 (human C4b (human) [3]) |
| --- | --- | --- | --- | --- | --- | --- |
| CFI-HSA variant Y408L; E457G; N531G; E416A (enzyme) | – | – | 34.8 nM | 2.15 | 4.66 | – |
| CFI-HSA variant Y408L; E457G; N531G; K534Q (enzyme) | – | – | – | 0.54 | 5.16 | 26.4 nM |
| CFI-HSA variant Y408L; E457G; N531G; N422K (enzyme) | – | – | – | 0.95 | 3.66 | 48.4 nM |
| CFI-HSA variant Y408L; E457G; N531G; P535G (enzyme) | – | – | – | 1.06 | 5.28 | 50.5 nM |
| CFI-HSA variant Y408L; E457G; N531G; P535G; D425K (enzyme) | – | – | – | 1.12 | 5.01 | 32.2 nM |
| CFI-HSA variant Y408L; E457G; N531G; P535G; K534Q (enzyme) | – | – | – | 1.2 | 4.68 | 21.1 nM |
| CFI-HSA variant Y408L; E457G; N531G; P535G; N422K (enzyme) | – | – | – | 1.77 | 3.64 | 59.7 nM |
| CFI-HSA variant Y408L; E457G; N531G; P558S (enzyme) | – | – | – | 0.86 | 5.27 | 26.6 nM |
| CFI-HSA variant Y408L; E457G; P558S (enzyme) | – | – | – | 0.97 | 4.59 | 67.3 nM |
| CFI-HSA variant Y408L; N531G; D425K (enzyme) | – | – | – | 1.43 | 4.99 | 50.1 nM |
| CFI-HSA variant Y408L; N531G; D425R; E416A (enzyme) | – | – | 60.6 nM | 2.15 | 1.41 | – |
| CFI-HSA variant Y408L; N531G; E457G (enzyme) | 0.63 | 6.16 | 94.4 nM | – | – | – |
| CFI-HSA variant Y408L; N531G; E457G; E461Q (enzyme) | 0.39 | 4.63 | 84.8 nM | – | – | – |
| CFI-HSA variant Y408L; N531G; E457G; E461Q; F464Y (enzyme) | 0.51 | 6.12 | 79.9 nM | – | – | – |
| CFI-HSA variant Y408L; N531G; E457G; E461Q; R462K (enzyme) | 0.64 | 6.07 | 60 nM | – | – | – |
| CFI-HSA variant Y408L; N531G; E457G; E461Q; R462K; F464Y (enzyme) | 0.46 | 5.37 | 82.1 nM | – | – | – |
| CFI-HSA variant Y408L; N531G; E457G; R462K; F464Y (enzyme) | 0.84 | 6.16 | 45.8 nM | – | – | – |
| CFI-HSA variant Y408L; N531G; E461Q (enzyme) | 1.21 | 6.68 | 51.5 nM | – | – | – |
